Data as given in paper PMC2504289.

Biological target: T1, CH1° 0p (unphosphorylated C-terminal domain of histone H1°) (UniProt P10922 98-194)
T1 sequence: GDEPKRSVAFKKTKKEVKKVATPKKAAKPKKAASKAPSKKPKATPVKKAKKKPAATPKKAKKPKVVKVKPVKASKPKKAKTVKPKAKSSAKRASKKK
Experiment: EMSA

B1: 50 bp dsDNA fragment (dsDNA)
DNA 1: CTATGATATATAGATAGTTAATGTAATATGATATAGATATAGGGATCC
DNA 2: GGATCCCTATATCTATATCATATTACATTAACTATCTATATATCATAG
B1: binds.
